# From patent US20100261647A1 (ARMAGEN TECHNOLOGIES, published 2010)
# How the values were obtained:
# [1] = target: T1, human insulin receptor extracellular domain (HIR ECD) (human, UniProt P06213 28-956, limits assumed); experiment: ELISA on plated HIR ECD, detection with biotinylated goat anti-human IgG (H+L)
# T1 construct: extracellular domain
# Protocol: CHO cells permanently transfected with the HIR ECD were grown in serum free media (SFM), and the HIR ECD was purified with a wheat germ agglutinin affinity column.
# [2] = target: T1, human insulin receptor extracellular …; experiment: competitive ligand binding assay, displacement of [125I]-murine HIRMAb from plated HIR ECD, Scatchard analysis
# Protocol: CHO cells transfected with the HIR ECD were grown in serum free media (SFM), and the HIR ECD was purified with a wheat germ agglutinin affinity column.
binder,measurement,setting,value
"chimeric HIRMAb (chimeric monoclonal antibody against the human insulin receptor) (antibody, human IgG1, kappa, V domains shown, Chimeric human IgG1/kappa) VH: QVQLQQSGPELVKPGALVKISCKASGYTFTNYDIHWVKQRPGQGLEWIGWIYPGDGSTKYNEKFKGKATLTADKSSSTAYMHLSSLTSEKSAVYFCAREWAYWGQGTLVTVSA VL: DIQMTQSPSSLSASLGERVSLTCRASQDIGGNLYWLQQGPDGTIKRLIYATSSLDSGVPKRFSGSRSGSDYSLTISSLESEDFVDYYCLQYSSSPWTFGGGTKMEIKR",EC50,[1],0.21 nM
same,Ki,[2],0.63 nM
